According to the supplement of paper PMC9732359:
± gives the uncertainty stated by the source.

Assay: protein stability index of a GFP-peptide fusion (yeast GPS) (PSI 1-4); higher = more stable; sorted into four equal gates, so the index is relative within each strain
Conditions: doa10∆
Summary of the method: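 Plasmids in a pooled yeast library fused tiled 17-residue yeast protein peptides downstream of GFP and also expressed Cherry. Mid-log cultures grown without leucine were sorted into four equal gates by GFP/Cherry fluorescence ratio. Each gate's plasmids were PCR-amplified and Illumina-sequenced, and reads were matched to strains by barcodes. The protein stability index is derived by multiplying each gate's read frequency by its gate number and summing the results.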
QRDAEISQPKSMSGRIS [BRR2] gave a protein stability index of 3.22 ± 0.058.

Same assay, conditions: pdr5∆
In the case of PRVQGFYVPQARNVTFD [GRR1], the protein stability index is reported as 2.68 ± 0.056.
Sequence PRYTYHTIFSDVCKTRF [YML031W/NDC1] has a protein stability index of 3 ± 0.051.
PSAVAGFINQKNLKPQE [YIL149C/MLP2] gave a protein stability index of 3.1 ± 0.084.
PSINLDPDNTSFSDENS [ESC2] gave a protein stability index of 2.93 ± 0.054.
PSKVSKIDSHVVLSFSG [PRE6] showed a protein stability index of 1.77 ± 0.058.
Work on PSLEVASEYIETLGLKY [FAS1] yielded a protein stability index of 3.3 ± 0.082.
With PSQTLFSISYKPPTQKT [SRP21] the protein stability index was 2.2 ± 0.039.
In the case of PSSEVYSPIEKESPWKI [RRP6], the protein stability index is reported as 3.03 ± 0.1.
PSTSSNMDVGNPRKRKA [GAL11] showed a protein stability index of 2.25 ± 0.12.
PSTTDDENGDKNDNGGK [SWI3] showed a protein stability index of 3.3 ± 0.069.
Work on PSVAAEYVYFFNNTSVI [RPC40] yielded a protein stability index of 1.48 ± 0.057.
With PSYSPTSPSYSPTSPSY [RPO21] the protein stability index was 2.884 ± 0.028.
PTETYSDVGGLDKQIEE [RPT5] showed a protein stability index of 3.35 ± 0.11.
PTQTKGNDAKPAKVEDV [YLR335W/NUP2] gave a protein stability index of 3.25 ± 0.053.
For PTSPSYSPTSPSYSPTS [RPO21], the protein stability index was 2.99 ± 0.041.
Work on PTSVKLLKTTVPIVSKK [POP3] yielded a protein stability index of 2.94 ± 0.068.
Sequence PTTMVTNQKDTNDHVDK [ISW2] has a protein stability index of 2.03 ± 0.064.
In the case of PTTVSYIFCISRTIGMV [SCL1], the protein stability index is reported as 1.97 ± 0.051.
PTVKYNRKVRAGRGFTL [RPL13A] showed a protein stability index of 2.87 ± 0.058.
With PVLNLDKLWTLIPEDKR [RPL28] the protein stability index was 1.45 ± 0.058.
With PVLSTIAFLVGLVNPKT [SWI3] the protein stability index was 2.52 ± 0.058.
Work on PVNTGVLHVSAKGKSGV [RRP40] yielded a protein stability index of 2.1 ± 0.097.
For PVPSDSTRKKGGRRGRR [RPS14B], the protein stability index was 3.45 ± 0.074.
In the case of PVRTIVPISTSQTNNSF [SIR4], the protein stability index is reported as 2.2 ± 0.047.
PWVVYLQILAMLLLNIF [YMR129W/POM152] showed a protein stability index of 1.96 ± 0.072.
Sequence PYEMYKYVHVSEVGNCS [FAS2] has a protein stability index of 2.53 ± 0.062.
With QAIITERLVEFSNVNEL [YIL149C/MLP2] the protein stability index was 3.38 ± 0.1.
Sequence QAIKEASYVNIPVIALT [RPS0A] has a protein stability index of 2 ± 0.061.
Sequence QAISYLHKLQRMRLRAL [GRR1] has a protein stability index of 1.74 ± 0.053.
With QANQVKRHSYAQSSHIR [RPS1A] the protein stability index was 2.622 ± 0.021.
With QANTEPENITKREASRG [MCD1] the protein stability index was 2.84 ± 0.073.
Work on QAPKQRRRTYRAHGRIN [RPL17A] yielded a protein stability index of 2.64 ± 0.12.
Sequence QARIILNHILEKSTQLQ [YGR119C/NUP57] has a protein stability index of 3.09 ± 0.072.
For QARTATLKYICAECSSK [RPC10], the protein stability index was 2.98 ± 0.1.
With QCCEFMTMLTPNYLHLV [YML103C/NUP188] the protein stability index was 1.77 ± 0.045.
QDSIFQRIIADLSADKP [SRB8] gave a protein stability index of 2.56 ± 0.057.
QDVAAKCKEVGITAVHV [RPS14B] gave a protein stability index of 2.7 ± 0.068.
QDVDDAHAIDQMTWRQW [POP8] showed a protein stability index of 1.99 ± 0.052.
QEAFKIYQHLASHNEKD [SRP72] gave a protein stability index of 3.08 ± 0.1.
In the case of QEEFVQFLQLDNDGFSF [ECM29], the protein stability index is reported as 3.13 ± 0.12.
QEPFLNSSNYAELFNND [PRP8] showed a protein stability index of 2.86 ± 0.046.
QEQLKNVKNDVSFNDSQ [YIL149C/MLP2] showed a protein stability index of 3.5 ± 0.066.
QERQRQIQKNGPEITPE [PRP8] showed a protein stability index of 3.2 ± 0.11.
QESFVPNSERSGTPTLK [YOR098C/NUP1] gave a protein stability index of 2.25 ± 0.15.
For QEYLNPVIDTQIANEFN [YDL116W/NUP84], the protein stability index was 2.96 ± 0.058.
For QFKTTIKDTANDNDITV [UBP6], the protein stability index was 2.09 ± 0.074.
QFLRLIFVSILSDRANK [ARP9] gave a protein stability index of 1.65 ± 0.075.
Work on QFTGFLLHEMTQTYMQM [GRR1] yielded a protein stability index of 2.08 ± 0.036.
QGDEALSVDDIRGAVGN [RTT102] showed a protein stability index of 3.49 ± 0.12.
QGEVGAVFIVPKILIRE [SWP82] gave a protein stability index of 2.36 ± 0.21.
Work on QGFSKDTFELIKTFLVD [YDL116W/NUP84] yielded a protein stability index of 3.26 ± 0.063.
Sequence QGGFYKQQDAEELFTQL [UBP6] has a protein stability index of 3.44 ± 0.12.
For QGKSKLIIIAANTPVLR [RPL30], the protein stability index was 3.08 ± 0.12.
QGLKLAKKHKLNAITLD [SMC3] showed a protein stability index of 2.64 ± 0.29.
With QGPRSYFLDVKCPGCLN [RPS27A] the protein stability index was 3.38 ± 0.1.
QGRDTSKLPDPERWLPL [SRP72] gave a protein stability index of 2.86 ± 0.21.
In the case of QGSMSERPPYILNSYGV [SIR2], the protein stability index is reported as 3.03 ± 0.084.
For QGTNSVPNSIGNIFSNI [SNF5], the protein stability index was 3.12 ± 0.095.
QHQRIVAFVCSPISDSR [RPN10] gave a protein stability index of 3.12 ± 0.11.
For QIENLNEVCLEKENRFE [SMC4], the protein stability index was 3.48 ± 0.1.
QILPESQWNDSSIDKIE [SIR3] gave a protein stability index of 3.42 ± 0.18.
Work on QILTVDPKTSLRIVKPT [RPC82] yielded a protein stability index of 2.99 ± 0.19.
QINKAQILENYNALFQQ [YJL039C/NUP192] gave a protein stability index of 3.12 ± 0.058.
QIPLHRAASVGSLKLIE [NAS6] gave a protein stability index of 2.16 ± 0.084.
Sequence QIPVYDTFDGSDLRVLS [FAS1] has a protein stability index of 2.92 ± 0.059.
QIQKNGPEITPEEATTI [PRP8] gave a protein stability index of 2.98 ± 0.15.
QITLTFISELCSIEPIA [YML103C/NUP188] gave a protein stability index of 1.46 ± 0.052.
With QIVSYCSNNKNSIKNVP [SSN2] the protein stability index was 2.14 ± 0.096.
With QIYTQRAYMRPLGVILT [SCL1] the protein stability index was 1.38 ± 0.06.
With QKEQNVNNRDSEKGFSK [YCS4] the protein stability index was 3.11 ± 0.063.
Sequence QKKATMSAEEALVYSYI [RPC34] has a protein stability index of 1.08 ± 0.099.
Sequence QKSVSLLSSESNIPTLI [YDL116W/NUP84] has a protein stability index of 2.69 ± 0.065.
QLASQLVDLKKELAELK [RPL35A] gave a protein stability index of 3.68 ± 0.27.
Work on QLAVKIINKVLDYQETY [YJL039C/NUP192] yielded a protein stability index of 2.73 ± 0.096.
QLCQITCQILESGEDEA [RRP46] showed a protein stability index of 1.98 ± 0.082.
With QLDDEDFDLLNKTLTFE [FAS1] the protein stability index was 3.58 ± 0.098.
Sequence QLNSRAVAVVVDPIQSV [RPN11] has a protein stability index of 1.65 ± 0.076.
Sequence QLSKAAKAAAALAGGKK [RPS25A] has a protein stability index of 1.86 ± 0.067.
For QLSLDASKTNLRLTDVT [GAL11], the protein stability index was 3.23 ± 0.066.
QLTEFWTELCQREFKEI [NNF1] gave a protein stability index of 3.41 ± 0.16.
Sequence QLVIQQGTGKKTASLGN [ISW2] has a protein stability index of 2.83 ± 0.21.
With QMMARMAQTATQQQPGA [SRP54] the protein stability index was 2.36 ± 0.067.
For QMMQQAQQKLKQNPGLM [SRP54], the protein stability index was 3.07 ± 0.082.
In the case of QNDFLFSVGESLSVVAG [ECM29], the protein stability index is reported as 3.08 ± 0.12.
With QNEMIDAIAVTKGHGFE [RPL3] the protein stability index was 3.21 ± 0.1.
Work on QNENLPSDKSDSMVDKE [SSN2] yielded a protein stability index of 2.64 ± 0.096.
For QNISPVYSVDPLEKITD [PRP8], the protein stability index was 2.9 ± 0.084.
QNLRKELLIYKKSQCKK [YIL149C/MLP2] showed a protein stability index of 2.35 ± 0.086.
In the case of QNPENLLSEKILQYFEK [SIR3], the protein stability index is reported as 2.81 ± 0.086.
For QPAKEKGVTEKDAVDYS [RRP6], the protein stability index was 3.15 ± 0.17.
QPKPLFSFGKSDAAKEP [YOR098C/NUP1] gave a protein stability index of 2.6 ± 0.039.
For QPSDVKPTSHKQLQQPK [SIR4], the protein stability index was 3.15 ± 0.088.
With QPWQMDTNNEADLMALE [SNF12] the protein stability index was 3.25 ± 0.076.
In the case of QQAQARLQQGRRLPMTM [SNF2], the protein stability index is reported as 3.15 ± 0.055.
With QQNPKFLQSQRQQQQRS [SWI1] the protein stability index was 1.94 ± 0.063.
In the case of QQNYSKVLLPSINISCV [SWI1], the protein stability index is reported as 1.71 ± 0.059.
QQPTASDNIASLQYINI [SMD1] showed a protein stability index of 3.27 ± 0.098.
With QQQDQPEQSEQPEQHQD [RPN10] the protein stability index was 3.12 ± 0.053.
QQQGQIPQSQQVPQVRS [SNF5] gave a protein stability index of 2.73 ± 0.042.
Work on QQQMANNNGNPGTTSTG [GAL11] yielded a protein stability index of 3.44 ± 0.065.
QQQNASSKLYQMQQQQQ [GAL11] showed a protein stability index of 1.66 ± 0.073.
QQQQQNQQQQNQQPQQQ [SWI1] showed a protein stability index of 3.06 ± 0.043.
In the case of QQQQQQQNPKFLQSQRQ [SWI1], the protein stability index is reported as 2.82 ± 0.052.
